Test: soluble on expression in E. coli; label from the status in PepcDB or PDB records

| Sequence | soluble on expression in E. coli |
| --- | --- |
| MASTFNPRECKLSKQEGQNYGFFLRIEKDTDGHLIRVIEEGSPAEKAGLLDGDRVLRINGVFVDKEEHAQVVELVRKSGNSVTLLVLDGDSYEKAVKNQVDLKELDQSQREAALNDKKPGPGMNGAVEPCAQPRLCYLVKEGNSFGFSLKTIQGKKGVYLTNIMPQGVAMKAGVLADDHLIEVNGENVENASHEEVVEKVTKSGSRIMFLLVDKETARCHSEQKTQFKRETASLKLLPHQPRVVVIKKGSNGYGFYLRAGPEQKGQIIKDIEPGSPAEAAGLKNNDLVVAVNGKSVEALDHDGVVEMIRKGGDQTTLLVLDKEAESIYSLARFSPLLYCQSQELPNGSVKEGPAPIPAPLEATGSEPTEDAEGHKPKLCRLLKEDDSYGFHLNAIRGQPGSFVKEVQQGGPADKAGLENEDVIIEVNGENVQEEPYDRVVERIKSSGKHVTLLVCGKMAYSYFQAKKIPIVSSMAEPLVAGPDEKGETSAESEHDAHPAKDRTLSTASHSSSNSEDTEM | soluble |
| MKVVGLDLGGTKIAAGVFDGKRLLSKVVVPTPKEGGERVAEALAEAAERAEREAGVRGEAIGLGTPGPLDFRRGVIRFAPNIPGVQDFPIRRILEEATGRPVFLENDANAAALAEHHLGAAQGEESSLYLTVSTGIGGGVVLGGRVLRGERGQGGELGHLTLLPGGPACGCGLEGCLEALAAGRALERDATYAFQRPVDTRELFRLFQAGDPKAERLVLQAARYVGIGLASLVKAFDPGVVVLGGGVALNAPEGYWEALLEAYRRYLQGWEAPPLRRARLGAEAGLLGAALTAYLEVKDGSG | soluble |
| MTLKGMSYVMCTGSFKLEKEVAETQHGTVLVQVKYEGTDAPCKIPFSTQDEKGATQNGRLITANPIVTDKEKPVNIEAEPPFGESYIVVGAGEKALKLSWFKKGSSIG | soluble |
| MSLKHLTEMVRQHKAGKTNGIYAVCSAHPLVLEAAIRYASANQTPLLIEATSNQVDQFGGYTGMTPADFRGFVCQLADSLNFPQDALILGGDHLGPNRWQNLPAAQAMANADDLIKSYVAAGFKKIHLDCSMSCQDDPIPLTDDIVAERAARLAKVAEETCLEHFGEADLEYVIGTEVPVPGGAHETLSELAVTTPDAARATLEAHRHAFEKQGLNAIWPRIIALVVQPGVEFDHTNVIDYQPAKASALSQMVENYETLIFEAHSTDYQTPQSLRQLVIDHFAILKVGPALTFALREALFSLAAIEEELVPAKACSGLRQVLEDVMLDRPEYWQSHYHGDGNARRLARGYSYSDRVRYYWPDSQIDDAFAHLVRNLADSPIPLPLISQYLPLQYVKVRSGELQPTPRELIINHIQDILAQYHTACEGQEGHHHHHH | soluble |
| MSLKTFTDRWRQLEWDDIRLRINGKTAADVERALNAAHLSRDDLMALLSPAAADYLEPIAQRAQRLTRQRFGNTVSFYVPLYLSNLCANDCTYCGFSMSNRIKRKTLDEVDIQRECDAIRKLGFEHLLLVTGEHQAKVGMDYFRRHLPTIRRQFSSLQMEVQPLSQENYAELKTLGIDGVMVYQETYHEAIYAQHHLKGKKQDFFWRLETPDRLGRAGIDKIGLGALIGLSDNWRVDCYMVAEHLLWMQKHYWQSRYSVSFPRLRPCTGGVEPASVMDEKQLVQTICAFRLLAPEIELSLSTRESPWFRDHVIPLAINNVSAFSKTQPGGYADDHPELEQFSPHDARRPETVASALSAQGLQPVWKDWDSWLGRASQTREGHHHHHH | not soluble |
| SLTTFATEWEKQLELYPEEYRKAYRRVKRASEILLREPEPQVGLTPKEVIWTKNKTKLYRYIPKQEKTQRVPILLIYALINKPYIMDLTPGNSLVEYLVDRGFDVYMLDWGTFGLEDSHLKFDDFVFDYIAKAVKKVMRTAKSDE | soluble |
| MACHELSALRIAIGELLEKEAHDLLHEREELAPVLGQRPELKRLAEAKTLPALEEALREALLHLEERAAQEPEEPYWRGLLLAVEAMEGRLKALRAEAEALYQDLDALHGRLHRLFPRRR | soluble |
| MAHHHHHHMLTNLRFLELQKLLLKRFQIFKNEEITILKKDSMKTILNEWAEFLTKEQKGTNITHIPDEVLQNKKVADILRDDIECRWLVGRINVGNNQESPVGTNDVNSSCSAALARKGTALSKIDQLHFDEYPNLFHYEYPQFPYNYYDKKKMENFYSLLKFPYNDILKISKMIKRDVISPSGNAEEGEILQQGGKAQSEVLESTHVDVVNDDFMNYSSNSYVYAPSEMETSKENYHE | not soluble |
| MLNTHSCIFHRGVNGSEPLLPVVNGVNICGNPRIISCCLLPLVNPCKPMSTGFDFVAIKKSRTFTAIEIRHKNMRKMAEQQIRCAKC | not soluble |

Source: the DeepSol protein solubility set
